Measurements from PMC2572630.

Molecular target: Flag-tagged mR3-3 c-Myb (chicken) (UniProt P01103)
Assay: protein chromatin immunoprecipitation (PChIP); 293T cells fixed with 1% formaldehyde, lysate sonicated to chromatin fragments of 100-300 bp, anti-Flag M2 agarose, washes up to 500 mM NaCl and 500 mM LiCl, histones detected by western blot

Sequence of UniProt P01103 (P01103 other isoform, or with tags, fused parts or gaps): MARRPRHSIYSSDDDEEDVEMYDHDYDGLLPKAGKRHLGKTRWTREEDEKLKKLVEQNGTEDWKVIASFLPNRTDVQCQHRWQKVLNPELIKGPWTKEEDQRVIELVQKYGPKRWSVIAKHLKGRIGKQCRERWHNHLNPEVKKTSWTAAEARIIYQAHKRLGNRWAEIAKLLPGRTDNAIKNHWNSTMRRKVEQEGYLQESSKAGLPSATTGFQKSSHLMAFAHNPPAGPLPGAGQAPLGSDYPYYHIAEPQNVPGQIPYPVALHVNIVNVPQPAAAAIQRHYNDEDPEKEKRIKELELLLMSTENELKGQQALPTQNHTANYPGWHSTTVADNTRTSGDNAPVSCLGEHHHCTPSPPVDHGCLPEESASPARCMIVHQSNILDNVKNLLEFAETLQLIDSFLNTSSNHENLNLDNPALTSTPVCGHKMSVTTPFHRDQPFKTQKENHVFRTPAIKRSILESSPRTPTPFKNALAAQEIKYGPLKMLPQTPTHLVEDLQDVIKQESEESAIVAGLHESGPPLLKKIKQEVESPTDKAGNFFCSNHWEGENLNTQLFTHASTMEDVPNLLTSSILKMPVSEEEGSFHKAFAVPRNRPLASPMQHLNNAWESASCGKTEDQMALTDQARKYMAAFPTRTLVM

Percent decrease in association against wild-type c-Myb, 50%:
histone H2A (from UniProt P0C0S8 1-130) (natural protein)
histone H3 (from UniProt P68431 1-136) (natural protein)
histone H4 (from UniProt P62805 1-103) (natural protein)
